Test results: FireProtDB (doi:10.1110/ps.073137708)
Where “and” joins values, the source holds several entries; their conditions need not be identical. Identical values can stand only once.

B1: H69A, Q7SID9 (parent)
chain: STGPVAPLPTPPNFPNDIALFQQAYQNWSKEIMLDATWVCSPKTPQDVVRLANWAHEHDYKIRPRGAMHGWTPLTVEKGANVEKVILADTMTHLNGITVNTGGPVATVTAGAGASIEAIVTELQKHDLGWANLPAPGVLSIGGALAVNAHGAALPAVGQTTLPGHTYGSLSNLVTELTAVVWNGTTYALETYQRNDPRITPLLTNLGRCFLTSVTMQAGPNFRQRCQSYTDIPWRELFAPKGADGRTFEKFVAESGGAEAIWYPFTEKPWMKVWTVSPTKPDSSNEVGSLGSAGSLVGKPPQAREVSGPYNYIFSDNLPEPITDMIGAINAGNPGIAPLFGPAMYEITKLGLAATNANDIWGWSKDVQFYIKATTLRLTEGGGAVVTSRANIATVINDFTEWFHERIEFYRAKGEFPLNGPVEIRCCGLDQAADVKVPSVGPPTISATRPRPDHPDWDVAIWLNVLGVPGTPGMFEFYREMEQWMRSHYNNDDATFRPEWSKGWAFGPDPYTDNDIVTNKMRATYIEGVPTTENWDTARARYNQIDPHRVFTNGFMDKLLP

Variants of: B1
Settings: Brevibacterium sterolicum; pH 7.5; 15 °C; Urea; Fluorescence; Potassium phosphate 50 mM; reversible: Yes (partial); structure 2I0K; whole UniProt chain shown
With H69A the “denaturant midpoint (higher = more stable)” value was 2.9 M and 3.5 M and 2.7 M and the unfolding free energy was 1.53 kcal/mol and 1.36 kcal/mol and 1.2 kcal/mol.
